Target: rat GIP receptor (rat) (UniProt P43219)
Test: cell-based or functional assay

Chain of UniProt P43219 (P43219 19-455): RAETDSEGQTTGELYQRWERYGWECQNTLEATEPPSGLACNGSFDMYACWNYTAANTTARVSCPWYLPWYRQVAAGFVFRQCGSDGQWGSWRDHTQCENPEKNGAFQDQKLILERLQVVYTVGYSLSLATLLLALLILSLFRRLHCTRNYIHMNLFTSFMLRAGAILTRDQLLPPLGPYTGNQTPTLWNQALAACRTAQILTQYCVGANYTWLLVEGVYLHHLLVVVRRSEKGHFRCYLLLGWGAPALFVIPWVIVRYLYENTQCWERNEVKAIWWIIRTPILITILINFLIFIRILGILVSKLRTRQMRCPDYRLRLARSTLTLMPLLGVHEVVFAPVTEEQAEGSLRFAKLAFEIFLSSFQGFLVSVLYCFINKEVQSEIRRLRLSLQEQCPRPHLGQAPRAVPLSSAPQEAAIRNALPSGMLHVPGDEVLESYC

synthetic porcine GIP (Sigma) (from UniProt P01281 1-42) (peptide)
cell proliferation (CyQUANT DNA content) of cultured adult hippocampal progenitor cells, 1 nM GIP, 48 h (% increase relative to control): 74.5
methyl-[3H]-thymidin incorporation in cultured adult hippocampal progenitor cells, 1 nM GIP, 24 h (% increase compared to control): 32.4

Source: patent US20050245441A1
